In the assay the target is selenomethionyl (Se-Met) labeled MJ0927 (Methanocaldococcus jannaschii). Description: crystal structure; Se-Met MJ0927, P2_(1) crystal form, MAD phasing; crystals grown at 4°C, 5% PEG3350, 0.1 M sodium acetate pH 5.0, 0.3 M sodium formate, 0.1 M ammonium sulfate, 3% PGA-LM; six molecules in the asymmetric unit.

Substance “selenomethionyl (Se-Met) labeled MJ0927 (natural protein)” returned a stoichiometry N of 6.

The values above are taken from PMC4163360.
